Measured values: the nanobody polyreactivity screen of Harvey et al. (2022)

Assay: yeast display, Sf9 membrane polyspecificity reagent, FACS + sequencing; frameworks hold sequencing errors
Summary of the method: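 Galactose-induced (36–48 hours) yeast carrying a synthetic nanobody display library were exposed to 10% biotinylated, detergent-solubilized Sf9 membrane reagent at 4 °C for 1 hour. FACS followed streptavidin microbead enrichment, using low and high (top ~1%) gates for expression (anti-HA) and reagent binding (streptavidin). Colony PCR, MiSeq 2 × 250 sequencing and CDR-length filtering followed. Labels for polyreactivity reflect the gate of origin.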

| Sequence | polyreactivity (PSR sort gate) |
| --- | --- |
| QVQLVESGGRLVQAGGSLRLSCAASGRTFGWYAMGWYRQAPGKERELVAAINRRVGRTYYADSVKGRFTISRDNAKNTVYLQMNSLIPEDTAVYYCAVKQGFYSRALKLYYWGQGTQVTVSS | high polyreactivity |
| QVQLVESGGGLVQAGGSLRLSCAASGIIIDSNAMGWYRQAPGKERELVAAITSGGSTKYADSVKGRFTISRDNAKNTVYLQMNSLKPEDTAVYYCAAGGSYYRDDYWGQGTQVTVSS | low polyreactivity |
| QVQLVESGGGLVQAGGSLRLSCAASGSIERNAMGWYRQAPGKERELVAAISRSGTRTYYADSVKGRFTISRDNAKNTVYLQMNSLKPEDTAVYYCAKASAQWVQFDYWGQGTQVTVSS | high polyreactivity |
| QVQLVESGGGLVQAGGSLRLSCAASGFTFYPYTMGWYRQAPGKERELVAAISSSGGSTYYADSVKGRFTISRDNAKNTVYLQMNSLKPEDTAVYYCNKYQRNWFSRAPMDYWGQGTQVTVSS | high polyreactivity |
| QVQLQESGGGLVQAGGSLRLSCAASGTNFYKDDMGWYRQAPGKEREFVAGIDRGGTTNCAGSVKGRFTISRDNAKNTVYLQMISLKPEDTAVYYCAAYYPDIYPFIYRGQGTQVTVSS | high polyreactivity |
| QGQLVESGGGLDQAGVSLRLSCAASGFIFSFDNAMGWYRQAPGTERELVAAISSGTTTHYADSVKGRFTISRDNAKNTVYLQMNSLKPEDSAVYDCAADSVKQVRYGNVGHDDWGQGTQVTVSS | low polyreactivity |
| QVQLVESGAGIVQAGGSLRLSCAASGSTFGINAMGWYRQAPGKEREFVASISWSTGTTYYADSVKGRFTISRDNAKNTVYLQRNSLKPEDTAVYYCAADSSRFYGRPRYYYWGQGTQVTVSS | high polyreactivity |
| QVQLVESGGGLVQAGGSLRLSCAASGRIFYAYAMGWYRQAPGKERELVATITGIGGSTYADSVKGRFTISRDNAKNTVNLQMNSLKPEDTAVYYCNAERGVYWGRYPYKYDYWGQGTQVTVSS | low polyreactivity |
| QVQLVESGGGLVQAGGSLRLSCAASGRIVWGYAMGWYTPAPGKERDLVATITRGGSTNYADSVKGRFTISRDNAKNTVYLQMNSLKPEDTAVYYCARDWGKSEYDYWGQGTQVTVSS | high polyreactivity |
| QVQLVESGGGLVQAGGSLRLSCAASGSTFWSNAMGWYRQAPGKERELVAAISISDGNTYYADSVKVRFTISRDNAKNTVYLQMNSLKPEDTAVYYCATVGSEDGDPGFDYWGQGTQVTVSS | low polyreactivity |
| QVQLVESGGGLVQAGGSLRLSCAASGSLFKRNAMGWYRQAPGKERELVAAITSSGGRTYYADSVKGRFTISRDNAKNTVYLLMNSLKPEDTAVYYCNKVRAGRDERRAGDYWGQGTQVTVSS | high polyreactivity |
| QVQLVESGGGLVQAGGSLRLSSAASGYIFQYTAMGCYRQAPGKVRELVAAIRYRGTSTYYADSVKGRFTISRDNAKNTVYLQRNSLKPEDTAVYYCAADRVPGRGFFRYGYWGQGTQVTVSS | high polyreactivity |
| QVQHVESGGGLVQAGGSLRLSCAASGSTFKYYAMGWSRQAPGKERELVAAISLSGGRTSYADSVKGRFTISRDNAKNTVYLQMNSLKPVDTAVYYCAAASYFPRFNYWGQGTQVTVSS | high polyreactivity |
| QVQLVESGGGLVQAGGGLRLSCAASGSTFVKNAMGWYRQAPGKERELVAAISYRGGRTYYADSVKGRFTISRDNAKNTVYLQMNSLKPEDTAVYYCAADASHLTGSEYWGQGTQVTVSS | high polyreactivity |
| QVQLVESGGGLVQAGGSLRLSCAASGFIFDYYAMGWYRQAPGKERELVAGISWSGGSTYYADSVKGRFTISRDNAKNTVYLQMNSLKPEDTAVYYCNAEYSVPFYLYYYWGQGTQVTVSS | low polyreactivity |
| QVQLVESGGGLVQAGGSLRLSCAASGSTFTPYAMGWYRQVPGKERELVASITIGGSTYADSVKGRFTISRDNSKNTVYLQMNSLKPEDTAVYYCNADWNWYPFLYSRMDYWGQGTQVTVSS | low polyreactivity |
| QVQLVESGGGLVQAGGSLRLSCAASGRIFLFYAMGWYRQAPGKERELVAGIRSGGSTNYADSVKGRFTISRDNAKNTVYLQMNSLKPEDTAVYYCAAASYFVYPRLEGYWGQGTQVTVSS | low polyreactivity |
| QVQLVESGGGLVQAGGSLRLSCAASGSIFPDNVMGWYRQATGKERELVAAISRTGGSTYYADSVKGRFTISRDNAKNTVYLQMNSLKPEDTAVYYCNAKYRVPYAVGGDYGYWGQGTQVTVSS | high polyreactivity |
| QVQLVESGGGLVQAGGSLRLSCPASGSIFNSYAMGWYRQAPGKERELVAAISSGGSTNYADSVKGRFTISRDNAKNTVYLQMNSLKPEDTAVYYCAKGSRKSGYKYYHGRVWFGYWGQGTQVTVSS | high polyreactivity |
| QVQLVESGGGLVQAGGSLRLSCSASGFTFYYAMGWYRQAPGKERELVAAITSSGTTYYADSVKGRFTISRDNAKNTVYLQMHSLKPEDTAVYYCNAVRWSKYAFYDYWGQGTQVTVSS | high polyreactivity |
| QVQLVESGGGLVQAGGSLSLSCAASGNIFTIYAMGWYRKAPGKERELVARITWGGGNTYYADSVKGRFTISRDNAKNTVYLQMNSLKPEDSAVYYCNAVGPYDYRYGKYDYWGLGTQVTVSS | low polyreactivity |
| QVQLVESGGGLVQAGGSLRLTCAASGFTFAGYAMGWYRQGPGKERELVAVITSSDSTYYADSVKGRFTISRDNAKNTVYLQMNSLKPEDTAVYYCNAADERSQGWVGYDHWGQCTQVTVSS | low polyreactivity |

| Sequence | polyreactivity (PSR sort gate) |
| --- | --- |
| QVQLVESGGGLVQAGGSLRLSCAASGGIFGLYAMGWYRQAPGKERELVAAISWSGGSTYYADSVKGRFTISRDNAKNTVYLQMNSLKPEDTAVYYCAAEWDTNFWYDYWGQGTQVTVSS | low polyreactivity |
| QVQLVESGGGLVQAGGSLRLSCAPSGSIFYVNAMGWYRQAPGKERELVAAITYDTGRTYYADSVKGRFTISRDNAKNTVYLQKNSLKPEDTAVYYCAVRPGYYWGYWPRFGYWGQGTQVTVSS | low polyreactivity |
| QVQLVESGGGLVQAGGSLRLSCAASGSTFYLNAMGWYRQAPGKERELVAAINGSGGSTYADSVKGRFTISRDNAKNTVYLQMNSLKPEDTAVYYCAADGTGYPGYSYPGNDYDYWGQGTQVTVSS | low polyreactivity |
| QVQLVESGGGLVQAGGSLRLSCAASGRTFRDYTMGWYRQAPGNERELVAAITSTGDTNYADSVKGRFTISRDNAKNTVYLQMNSLKPEDTALNYCATQTGEEYQAPLIYDYWGQGTQVTVSS | low polyreactivity |
| QVQLVESGGGLVQAGGSLRLSCAASGYIFRVYAMGWYRQAPGKERELVAAISGSGGRTYYADSVKGRFTISRDNAKNTVSLQMNSLKPEDTAVYYCAAYRVSDYDYWGQGTQVTVSS | high polyreactivity |
| QVQLVESGGGLVQAGGSLRISCAASGRTFLVYTMGWYRQAPGKERELVAAISWSDGSTYYADSVKGRFTISRDNAKNTVYLQMNSLKPEDTAVYYCAARRTGYLYRYGYWGQGTQVTVSS | low polyreactivity |
| QVQLVESGGGLVQAGGSLRLSCAASGNIFADYVMGWYRQAPGKERELVAAIDKSGGRTYYADSVKGRFTISRDNEKNNVYLQMNILKPEDTAVYYCSAYDRYRRMDYWGQGTQVTVSS | high polyreactivity |
| QVQLVESGGGLVQAGGSLRLSCAASGITFYVNTKGWYRQAPGKEREVVAAIDWTDGGTYYADSVKGRFTISRDNAKNTVYLQMNSLKPEDTAVYYCALDYYWDIIGLYGYLAYDLDYWGQGTQVTVSS | low polyreactivity |
| QVPLVESGGGLVQAGGSLRLSCAASGSTQNRYAMGWYRQAPGKEREFVAAITWRGGSTYADSVKGRFTISRDNAKTTVYLQMYSLKPEDTAVYYCAAQGYKQRVHYDYWGQGNQVTVSS | high polyreactivity |
| QVQLVESGGGLVQAGGSLRLSCAASGLIFWKYAMGWYREAPGKERELVAAITSGGSTNYADSVKGRFTISRDNAKNPVYLQMNSLKPEDTAVYYCNARSWFEYYWGQGTQVTVSS | high polyreactivity |
| QVQHVESWGGIVQARGSLRLSCAASGSTFSYNALGWYRQPPGKERELVAALTCSGASTYYAYSVKGRFTISRDKAKNTVYLQLSSMNPDDTAVYYCNAPDGPGPNAYYEFDYWGQGTQVTVSS | low polyreactivity |
| QVQLVESGGGLVQAGGSLSLSCAASGITFYGYAMGWYRQAHGKERELVATIRRSTGSTYYADSVKGRFTISRDNAMNTVYLQMNSLKPEDTAVYYCATRVWFPITSYDYWGQGTKVTVSS | low polyreactivity |
| QVQLVESGGGLVQAGGSLRLSCAASGSIFSYNAMGWYRQAPGKERELVAAIRASGGDTYYADSVKGRFTISRDNAKNTVYLQMNSLKPEDTAVYYCAARTYAHHYASHGYWGQGTQVTVSS | low polyreactivity |
| QVQLQESGGGLVQAGGSLRLSCAASSNNSTLDVMGWYRQAPGKEREFVASIGSGGITNYADSVKGRFTISRDNAKNTVYLQMNSLKPEDTAVYYCAVLNQAYTDLIYWGQGTLVTVSS | high polyreactivity |
| QVQLVESGGGLVQAGGSLRLSCAASGSIFLAYDMGWYRQAPGKERELVAGITSGGTTYYADSVKGRFTISRDNAKNTVYLQMNSLKPEDTAVYYCAVEPVFIVSEVLFDYWGQGTQVTVSS | low polyreactivity |
| QVQLVESGGGLVQAGGSLRLSCAASGRTFQGYTMGWYRQAPGKERELVAAITGGVGSTYYADSVKGRFTISRDNAKNTVYLQMNSLKPEDTAVYYCNTVSYGYTDLYIFYTGYYYWGQGTQVTVSS | low polyreactivity |
| QVQLGESGGGLVQAGGILRLSCAASGRIFPQYAMGWYRQAPGKERELVAGITSVGSTYYADSVKGRFTISRDNAKNTVYLQMNSLKPEDTAVYFCAAVPSRYVRANRRTYRYYYWGKGTQVTVSS | high polyreactivity |
| QVQLVESGGGLVQAGGSLRLSCAASGNTINFYAMGWYRQAPGKEREMVAAISSGGSTNYADSVKGRFTISRDNAKNTVYLQMNSLKPEDSAVYYCAKDVWYLVYYHWKSNRVWQYDYWGQGTQVTVSS | low polyreactivity |
| QVQLVESGGRLVQAGGSLRLSCAASGRIFSINVMGWYRHAPGKERELVAAISKRGGSTYYADSVKGRFTISRDNAKNTVYLQMNSLKPEDTAVFYCAARRHYTYGNGPSRGGQMDYWGQGTQVTVSS | high polyreactivity |
| QVQMQESSGGLVHAGGSLRKSCAASGTIYHFHIMGWYRQAPGKEREFVAAIRYGTSTYYADSVKGLFTISRDNEKNTVYVKMNSQKPEDTAVYYCAVYDYLEVYCWYWGQGTQVTVSS | low polyreactivity |
| QDQLVDSGGGLVQAGGSLRLSCAASGIIFYRYAMGWYRQAPGKERELVATITASGGRTYYADSVKGRFTISRDNAKNTVYLQMNSLKPEDTAVYYCAAVSSYRLYSDYGYWRQGTQVTVSS | high polyreactivity |
